Measurements: patent publication US20250018014A1, “METHOD FOR TREATING AND/OR PREVENTING REGNASE-1-RELATED DISEASE” (OSAKA UNIVERSITY, priority 2018, published 2025)

Columns and labels:
[1] = target: T1, FLAG-tagged Regnase-1 AA mutant (S435A/S439A), purified from or expressed in Regnase-1-deficient MEFs
T1 chain: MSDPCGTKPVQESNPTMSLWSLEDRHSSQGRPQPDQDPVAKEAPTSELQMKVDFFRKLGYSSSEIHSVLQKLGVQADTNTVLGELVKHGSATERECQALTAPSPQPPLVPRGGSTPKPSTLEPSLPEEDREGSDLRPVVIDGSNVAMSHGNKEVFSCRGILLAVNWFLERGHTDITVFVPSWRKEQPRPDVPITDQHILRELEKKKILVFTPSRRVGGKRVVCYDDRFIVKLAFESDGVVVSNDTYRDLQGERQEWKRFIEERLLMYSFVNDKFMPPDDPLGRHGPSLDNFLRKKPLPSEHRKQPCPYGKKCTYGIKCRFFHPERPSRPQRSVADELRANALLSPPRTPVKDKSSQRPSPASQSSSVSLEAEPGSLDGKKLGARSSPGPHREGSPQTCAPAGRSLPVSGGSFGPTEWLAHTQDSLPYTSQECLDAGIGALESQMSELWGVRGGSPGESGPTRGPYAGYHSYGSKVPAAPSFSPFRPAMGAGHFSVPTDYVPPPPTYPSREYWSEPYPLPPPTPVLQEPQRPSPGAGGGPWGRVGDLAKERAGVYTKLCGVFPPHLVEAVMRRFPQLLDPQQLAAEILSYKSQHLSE

[2] = target: T2, biotinylated human Regnase-1 (full length, C-terminal BirA recognition sequence, GST tag cleaved)
T2 chain: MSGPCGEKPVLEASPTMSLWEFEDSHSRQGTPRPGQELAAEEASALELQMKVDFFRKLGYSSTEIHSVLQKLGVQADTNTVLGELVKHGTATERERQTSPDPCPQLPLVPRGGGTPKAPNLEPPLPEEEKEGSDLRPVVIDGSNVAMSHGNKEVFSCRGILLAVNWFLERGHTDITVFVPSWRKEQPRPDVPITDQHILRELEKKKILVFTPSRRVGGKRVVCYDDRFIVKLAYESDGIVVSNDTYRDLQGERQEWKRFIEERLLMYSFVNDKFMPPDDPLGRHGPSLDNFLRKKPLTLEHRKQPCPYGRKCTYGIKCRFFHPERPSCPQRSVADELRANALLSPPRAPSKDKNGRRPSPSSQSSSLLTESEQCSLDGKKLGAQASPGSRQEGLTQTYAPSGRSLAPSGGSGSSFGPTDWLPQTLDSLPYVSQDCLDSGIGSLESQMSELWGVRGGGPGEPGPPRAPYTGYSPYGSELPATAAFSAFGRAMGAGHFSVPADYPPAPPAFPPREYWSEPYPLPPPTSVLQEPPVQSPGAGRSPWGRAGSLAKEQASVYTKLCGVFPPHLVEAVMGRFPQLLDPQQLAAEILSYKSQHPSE

B1: GST-tagged IKKi (Thermo Fisher Scientific) (protein)
chain: MQSTANYLWHTDDLLGQGATASVYKARNKKSGELVAVKVFNTTSYLRPREVQVREFEVLRKLNHQNIVKLFAVEETGGSRQKVLVMEYCSSGSLLSVLESPENAFGLPEDEFLVVLRCVVAGMNHLRENGIVHRDIKPGNIMRLVGEEGQSIYKLTDFGAARELDDDEKFVSVYGTEEYLHPDMYERAVLRKPQQKAFGVTVDLWSIGVTLYHAATGSLPFIPFGGPRRNKEIMYRITTEKPAGAIAGAQRRENGPLEWSYTLPITCQLSLGLQSQLVPILANILEVEQAKCWGFDQFFAETSDILQRVVVHVFSLSQAVLHHIYIHAHNTIAIFQEAVHKQTSVAPRHQEYLFEGHLCVLEPSVSAQHIAHTTASSPLTLFSTAIPKGLAFRDPALDVPKFVPKVDLQADYNTAKGVLGAGYQALRLARALLDGQELMFRGLHWVMEVLQATCRRTLEVARTSLLYLSSSLGTERFSSVAGTPEIQELKAAAELRSRLRTLAEVLSRCSQNITETQESLSSLNRELVKSRDQVHEDRSIQQIQCCLDKMNFIYKQFKKSRMRPGLGYNEEQIHKLDKVNFSHLAKRLLQVFQEECVQKYQASLVTHGKRMRVVHETRNHLRLVGCSVAACNTEAQGVQESLSKLLEELSHQLLQDRAKGAQASPPPIAPYPSPTRKDLLLHMQELCEGMKLLASDLLDNNRIIERLNRVPAPPDV
- in vitro phosphorylation (mobility shift by immunoblotting, 32P autoradiography) [1]: Phosphorylation of recombinant Regnase-1 by recombinant TBK1 and/or IKKi under in vitro conditions was detected

B2: GST-tagged TBK1 (Sigma) (protein)
chain: MQSTSNHLWLLSDILGQGATANVFRGRHKKTGDLFAIKVFNNISFLRPVDVQMREFEVLKKLNHKNIVKLFAIEEETTTRHKVLIMEFCPCGSLYTVLEEPSNAYGLPESEFLIVLRDVVGGMNHLRENGIVHRDIKPGNIMRVIGEDGQSVYKLTDFGAARELEDDEQFVSLYGTEEYLHPDMYERAVLRKDHQKKYGATVDLWSIGVTFYHAATGSLPFRPFEGPRRNKEVMYKIITGKPSGAISGVQKAENGPIDWSGDMPVSCSLSRGLQVLLTPVLANILEADQEKCWGFDQFFAETSDILHRMVIHVFSLQQMTAHKIYIHSYNTATIFHELVYKQTKIISSNQELIYEGRRLVLEPGRLAQHFPKTTEENPIFVVSREPLNTIGLIYEKISLPKVHPRYDLDGDASMAKAITGVVCYACRIASTLLLYQELMRKGIRWLIELIKDDYNETVHKKTEVVITLDFCIRNIEKTVKVYEKLMKINLEAAELGEISDIHTKLLRLSSSQGTIETSLQDIDSRLSPGGSLADAWAHQEGTHPKDRNVEKLQVLLNCMTEIYYQFKKDKAERRLAYNEEQIHKFDKQKLYYHATKAMTHFTDECVKKYEAFLNKSEEWIRKMLHLRKQLLSLTNQCFDIEEEVSKYQEYTNELQETLPQKMFTASSGIKHTMTPIYPSSNTLVEMTLGMKKLKEEMEGVVKELAENNHILERFGSLTMDGGLRNVDCL
- in vitro phosphorylation (mobility shift by immunoblotting, 32P autoradiography) [1]: Phosphorylation of recombinant Regnase-1 by recombinant TBK1 and/or IKKi under in vitro conditions was detected

B3: TBK1 (manufactured by SignalChem) (protein)
chain: MQSTSNHLWLLSDILGQGATANVFRGRHKKTGDLFAIKVFNNISFLRPVDVQMREFEVLKKLNHKNIVKLFAIEEETTTRHKVLIMEFCPCGSLYTVLEEPSNAYGLPESEFLIVLRDVVGGMNHLRENGIVHRDIKPGNIMRVIGEDGQSVYKLTDFGAARELEDDEQFVSLYGTEEYLHPDMYERAVLRKDHQKKYGATVDLWSIGVTFYHAATGSLPFRPFEGPRRNKEVMYKIITGKPSGAISGVQKAENGPIDWSGDMPVSCSLSRGLQVLLTPVLANILEADQEKCWGFDQFFAETSDILHRMVIHVFSLQQMTAHKIYIHSYNTATIFHELVYKQTKIISSNQELIYEGRRLVLEPGRLAQHFPKTTEENPIFVVSREPLNTIGLIYEKISLPKVHPRYDLDGDASMAKAITGVVCYACRIASTLLLYQELMRKGIRWLIELIKDDYNETVHKKTEVVITLDFCIRNIEKTVKVYEKLMKINLEAAELGEISDIHTKLLRLSSSQGTIETSLQDIDSRLSPGGSLADAWAHQEGTHPKDRNVEKLQVLLNCMTEIYYQFKKDKAERRLAYNEEQIHKFDKQKLYYHATKAMTHFTDECVKKYEAFLNKSEEWIRKMLHLRKQLLSLTNQCFDIEEEVSKYQEYTNELQETLPQKMFTASSGIKHTMTPIYPSSNTLVEMTLGMKKLKEEMEGVVKELAENNHILERFGSLTMDGGLRNVDCL
- in vitro phosphorylation reaction, western blotting with anti-phosphorylated Regnase-1 antibody [2]: it was confirmed that human Regnase-1 is phosphorylated by IKKβ and TBK1

B4: IKKβ (manufactured by SignalChem) (protein)
chain: MSWSPSLTTQTCGAWEMKERLGTGGFGNVIRWHNQETGEQIAIKQCRQELSPRNRERWCLEIQIMRRLTHPNVVAARDVPEGMQNLAPNDLPLLAMEYCQGGDLRKYLNQFENCCGLREGAILTLLSDIASALRYLHENRIIHRDLKPENIVLQQGEQRLIHKIIDLGYAKELDQGSLCTSFVGTLQYLAPELLEQQKYTVTVDYWSFGTLAFECITGFRPFLPNWQPVQWHSKVRQKSEVDIVVSEDLNGTVKFSSSLPYPNNLNSVLAERLEKWLQLMLMWHPRQRGTDPTYGPNGCFKALDDILNLKLVHILNMVTGTIHTYPVTEDESLQSLKARIQQDTGIPEEDQELLQEAGLALIPDKPATQCISDGKLNEGHTLDMDLVFLFDNSKITYETQISPRPQPESVSCILQEPKRNLAFFQLRKVWGQVWHSIQTLKEDCNRLQQGQRAAMMNLLRNNSCLSKMKNSMASMSQQLKAKLDFFKTSIQIDLEKYSEQTEFGITSDKLLLAWREMEQAVELCGRENEVKLLVERMMALQTDIVDLQRSPMGRKQGGTLDDLEEQARELYRRLREKPRDQRTEGDSQEMVRLLLQAIQSFEKKVRVIYTQLSKTVVCKQKALELLPKVEEVVSLMNEDEKTVVRLQEKRQKELWNLLKIACSKVRGPVSGSPDSMNASRLSQPGQLMSQPSTASNSLPEPAKKSEELVAEAHNLCTLLENAIQDTVREQDQSFTALDWSWLQTEEEEHSCLEQAS
- in vitro phosphorylation reaction, western blotting with anti-phosphorylated Regnase-1 antibody [2]: it was confirmed that human Regnase-1 is phosphorylated by IKKβ and TBK1
